T1: rhesus monkey ERBB3 human Fc tagged recombinant protein (rhesus monkey (Macaca mulatta), UniProt P21860 20-643 (human entry), limits assumed)
T1 construct: also called rhesus ERBB3-Fc; rhERBB3
T1 chain: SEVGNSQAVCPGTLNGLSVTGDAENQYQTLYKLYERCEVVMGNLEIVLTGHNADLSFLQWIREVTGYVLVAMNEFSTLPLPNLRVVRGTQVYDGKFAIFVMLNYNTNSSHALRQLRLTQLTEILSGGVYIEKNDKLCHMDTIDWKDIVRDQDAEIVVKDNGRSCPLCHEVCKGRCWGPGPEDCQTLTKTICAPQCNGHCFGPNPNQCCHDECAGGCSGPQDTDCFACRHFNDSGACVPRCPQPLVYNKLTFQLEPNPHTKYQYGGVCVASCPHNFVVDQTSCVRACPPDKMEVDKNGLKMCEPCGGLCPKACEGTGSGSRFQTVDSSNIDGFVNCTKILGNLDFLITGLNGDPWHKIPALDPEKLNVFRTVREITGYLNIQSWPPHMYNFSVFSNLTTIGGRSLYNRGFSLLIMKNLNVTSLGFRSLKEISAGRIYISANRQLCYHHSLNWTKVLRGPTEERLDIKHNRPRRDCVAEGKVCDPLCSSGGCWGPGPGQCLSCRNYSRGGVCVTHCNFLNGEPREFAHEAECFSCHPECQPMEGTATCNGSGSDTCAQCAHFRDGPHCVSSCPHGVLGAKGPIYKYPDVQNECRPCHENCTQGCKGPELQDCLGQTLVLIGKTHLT

T2: rhesus ERBB3 on transiently transfected HEK-293 cells (rhesus monkey (Macaca mulatta), UniProt P21860 20-1342 (human entry))
T2 construct: also called rhesus ERBB3+ HEK-293 cells
T2 chain: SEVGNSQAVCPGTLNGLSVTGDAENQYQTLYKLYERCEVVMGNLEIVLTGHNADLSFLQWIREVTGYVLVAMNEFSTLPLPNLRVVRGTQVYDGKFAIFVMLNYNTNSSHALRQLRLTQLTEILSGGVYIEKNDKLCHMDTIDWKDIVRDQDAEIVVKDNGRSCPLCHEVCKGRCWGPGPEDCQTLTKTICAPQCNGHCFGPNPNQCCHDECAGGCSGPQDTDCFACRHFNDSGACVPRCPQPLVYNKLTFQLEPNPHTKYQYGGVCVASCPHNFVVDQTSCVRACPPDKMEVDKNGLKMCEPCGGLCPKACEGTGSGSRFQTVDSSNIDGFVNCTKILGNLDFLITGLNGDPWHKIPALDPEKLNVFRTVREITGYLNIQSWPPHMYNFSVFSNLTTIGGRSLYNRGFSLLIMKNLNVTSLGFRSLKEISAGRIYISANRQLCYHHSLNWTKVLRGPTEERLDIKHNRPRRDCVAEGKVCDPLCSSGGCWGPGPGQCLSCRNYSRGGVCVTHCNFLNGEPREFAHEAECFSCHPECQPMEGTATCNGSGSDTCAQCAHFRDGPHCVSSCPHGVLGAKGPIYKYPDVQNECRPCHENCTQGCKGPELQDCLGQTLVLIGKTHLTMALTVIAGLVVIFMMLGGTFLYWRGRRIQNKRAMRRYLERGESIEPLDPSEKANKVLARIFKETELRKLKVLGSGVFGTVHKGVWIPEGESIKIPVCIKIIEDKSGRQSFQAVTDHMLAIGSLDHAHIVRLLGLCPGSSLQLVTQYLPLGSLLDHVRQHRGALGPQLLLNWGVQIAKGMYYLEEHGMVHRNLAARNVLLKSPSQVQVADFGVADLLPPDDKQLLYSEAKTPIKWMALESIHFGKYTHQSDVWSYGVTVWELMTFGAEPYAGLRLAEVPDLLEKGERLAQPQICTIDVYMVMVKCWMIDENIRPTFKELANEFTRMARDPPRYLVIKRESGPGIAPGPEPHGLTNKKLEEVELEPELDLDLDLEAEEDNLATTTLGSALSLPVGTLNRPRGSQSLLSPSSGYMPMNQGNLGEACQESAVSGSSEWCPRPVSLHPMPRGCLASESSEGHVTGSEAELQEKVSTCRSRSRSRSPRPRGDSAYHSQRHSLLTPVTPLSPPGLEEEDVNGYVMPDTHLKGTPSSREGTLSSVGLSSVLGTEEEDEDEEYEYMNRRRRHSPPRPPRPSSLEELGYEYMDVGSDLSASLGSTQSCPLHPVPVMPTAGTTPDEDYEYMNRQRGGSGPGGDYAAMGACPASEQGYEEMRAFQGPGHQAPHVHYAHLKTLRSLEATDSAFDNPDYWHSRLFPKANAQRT


Experiments:
[1] = molecular target: T3, human ERBB3 His tagged, monomeric (human, UniProt P21860 20-643, biotinylated in the Alphascreen assays (sites not given)); experiment: Alphascreen competition in solution, competitor h24C05 IgG1, biotinylated human ERBB3-His
T3 construct: Used unbiotinylated as Biacore analyte and biotinylated in Alphascreen; treated as one molecule; also called human ERBB3-His (Acrobiosystems); biotinylated monomeric human ERBB3

[2] = molecular target: T1, rhesus monkey ERBB3 human Fc tagged …; experiment: direct binding ELISA on coated rhesus ERBB3-Fc, IgG1 titrated
Method: (§1) Binding and cross-reactivity of the lead panel to the recombinant proteins was initially assessed by binding ELISA. The human ERBB3 human Fc tagged recombinant protein and the rhesus monkey ERBB3 human Fc tagged recombinant protein were coated to the surface of MaxiSorp™ flat-bottom 96 well plate at 1 μg/ml. The purified IgG samples were titrated in two fold serial dilutions starting from 500 nM to 0.008 nM and allowed to bind to the coated antigens. The Fabs were detected using mouse anti-c-myc antibody followed by donkey anti-mouse IgG conjugated to horseradish peroxidase. The IgGs were detected using the mouse anti-human IgG conjugated to horseradish peroxidase. Binding signals were visualized with 3,3′,5,5′-Tetramethylbenzidine Substrate Solution (TMB) and the absorbance measured at 450 nm.

[3] = molecular target: T2, rhesus ERBB3 on transiently transfected …; experiment: flow cytometry, rhesus ERBB3-transfected HEK-293 cells, IgG1 titrated
Method: (§2) Purified IgGs were tested in FACs for binding to human and rhesus monkey ERBB3 expressed on transiently transfected HEK-293 cells and HEK-293 wild-type cells. The IgG samples were titrated in three-fold serial dilutions starting at 500 nM to 0.008 nM. Binding of IgGs was detected with a mouse anti-human IgG conjugated to FITC. Results were analyzed by examining the Mean Fluorescence Intensity (MFI) of 10000 cells per sample in the BL-1 channel detector of a flow cytometer (Attune™ NxT Acoustic Focusing Cytometer, Invitrogen/ThermoFisher Scientific).

[4] = molecular target: T4, human insulin (human, UniProt P01308 25-54; P01308 90-110, limits assumed); experiment: development risk ELISA on insulin
T4 construct: Off-target protein in the development risk (polyreactivity) ELISA

[5] = molecular target: T5, human ERBB3 human Fc tagged recombinant protein (human, UniProt P21860 20-643); experiment: direct binding ELISA on coated human ERBB3-Fc, IgG1 titrated
T5 construct: also called human ERBB3-Fc; huERBB3
Method: as §1

[6] = molecular target: T6, human ERBB3 on transiently transfected HEK-293 cells (human, UniProt P21860 20-1342); experiment: flow cytometry, human ERBB3-transfected HEK-293 cells, IgG1 titrated
T6 construct: also called human ERBB3+ HEK-293 cells
Method: as §2

T4 sequence (P01308 25-54 limits assumed, chain 1 of 2): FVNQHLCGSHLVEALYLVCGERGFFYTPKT
T4 sequence (P01308 90-110 limits assumed, chain 2 of 2): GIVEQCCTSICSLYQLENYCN

Binder | IC50 (read off the curve) [1] [nM] | binding result [2] | binding result [3] | binding score [4] | binding result [1] | binding result [5] | binding result [6] | EC50 (read off the curve) [5] [nM] | EC50 (read off the curve) [2] [nM] | EC50 (read off the curve) [6] [nM] | EC50 (read off the curve) [3] [nM]
15G11-DI1 IgG1 (antibody, V domains shown, Human IgG1 format, human Ckappa) VH: QVQLVESGGGLVKPGGSLRLSCAASGFTFSDYGMSWVRQAPGKGLEWVSTISDSGSYTYYPDSVKGRFTISRDNAKNSLYLQMNSLRAEDTAVYYCARELGDYDGFDYWGQGTLVTVSS VL: DIQMTQSPSSLSASVGDRVTITCRASQEISSYLSWYQQKPGKAPKLLIYAASSLDTGVPSRFSGSGSGTDFTLTISSLQPEDFATYYCLQYDSTPYTFGGGTKVEIK | ~0.5 | binds | binds | < 10 | – | – | – | – | – | – | –
15G11-DI11 IgG1 (antibody, V domains shown, Human IgG1 format, human Ckappa) VH: QVQLVESGGGLVKPGGSLRLSCAASGFTFSDYGMSWVRQAPGKGLEWVSTISDSGSYTYYPDSVKGRFTISRDNAKNSLYLQMNSLRAEDTAVYYCARELGDYDGFDYWGQGTLVTVSS VL: DIQMTQSPSSLSASVGDRVTITCRASQEASSYLSWYQQKPGKAPKLLAYAASSLDSGVPSRFSGSGSGTDFTLTISSLQPEDFATYYCLQYDSSPYTFGGGTKVEIK | – | – | – | < 10 | – | – | – | – | – | – | –
15G11-DI5 IgG1 (antibody, V domains shown, Human IgG1 format, human Ckappa) VH: QVQLVESGGGLVKPGGSLRLSCAASGFTFSDYSMSWIRQAPGKGLEWVSTISDSGTYTYYPDSVKGRFTISRDNAKNSLYLQMNSLRAEDTAVYYCAREWGDYDGFDFWGQGTLVTVSS VL: DIQMTQSPSSLSASVGDRVTITCRASQEISSYLSWYQQKPGKAPKLLIYAASSLDTGVPSRFSGSGSGTDFTLTISSLQPEDFATYYCLQYDSTPYTFGGGTKVEIK | – | – | binds | < 10 | – | – | – | ~0.2 | ~0.2 | – | –
15G11-DI6 IgG1 (antibody, V domains shown, Human IgG1 format, human Ckappa) VH: QVQLVESGGGLVKPGGSLRLSCAASGFTFSDYSMSWIRQAPGKGLEWVSTISDSGTYTYYPDSVKGRFTISRDNAKNSLYLQMNSLRAEDTAVYYCAREWGDYDGFDFWGQGTLVTVSS VL: DIQMTQSPSSLSASVGDRVTITCRASQEISTYLSWYQQKPGKAPKLLIYAASSLDTGVPSRFSGSGSGTDFTLTISSLQPEDFATYYCLQYDSTPYTFGGGTKVEIK | – | binds | – | < 10 | – | – | – | – | – | ~1 | ~0.3

The remaining lines, values ahead:

IC50 (read off the curve) [1] [nM] | binding result [2] | binding result [3] | binding score [4] | binding result [1] | binding result [5] | binding result [6] | EC50 (read off the curve) [5] [nM] | EC50 (read off the curve) [2] [nM] | EC50 (read off the curve) [6] [nM] | EC50 (read off the curve) [3] [nM] | Binder
– | binds | binds | – | binds | binds | binds | – | – | – | – | 15G11-DI10 IgG1 (antibody, V domains shown, Human IgG1 format, human Ckappa) VH: QVQLVESGGGLVKPGGSLRLSCAASGFTFSDYGMSWVRQAPGKGLEWVSTISDSGSYTYYPDSVKGRFTISRDNAKNSLYLQMNSLRAEDTAVYYCARELGDYDGFDYWGQGTLVTVSS VL: DIQMTQSPSSLSASVGDRVTITCRASQEISSYLSWYQQKPGKAPKLLAYAASSLDSGVPSRFSGSGSGTDFTLTISSLQPEDFATYYCLQYDSTPYTFGGGTKVEIK
– | binds | binds | < 10 | binds | binds | binds | – | – | – | – | 15G11-DI8 IgG1 (antibody, V domains shown, Human IgG1 format, human Ckappa) VH: QVQLVESGGGLVKPGGSLRLSCAASGFTFSDYSMSWIRQAPGKGLEWVSTISDSGTYTYYPDSVKGRFTISRDNAKNSLYLQMNSLRAEDTAVYYCAREWGDYDGFDFWGQGTLVTVSS VL: DIQMTQSPSSLSASVGDRVTITCRASQEISTYLSWYQQKPGKAPKLLIYAASSLDTGVPSRFSGSGSGTDFTLTISSLQPEDFATYYCLQYDSSPYTFGGGTKVEIK
– | binds | binds | < 10 | binds | binds | binds | – | – | – | – | 15G11-DI2 IgG1 (antibody, V domains shown, Human IgG1 format, human Ckappa) VH: QVQLVESGGGLVKPGGSLRLSCAASGFTFSDYGMSWVRQAPGKGLEWVSTISDSGSYTYYPDSVKGRFTISRDNAKNSLYLQMNSLRAEDTAVYYCARELGDYDGFDYWGQGTLVTVSS VL: DIQMTQSPSSLSASVGDRVTITCRASQEISTYLSWYQQKPGKAPKLLIYAASSLDTGVPSRFSGSGSGTDFTLTISSLQPEDFATYYCLQYDSTPYTFGGGTKVEIK
– | binds | binds | < 10 | binds | binds | binds | – | – | – | – | 15G11-DI3 IgG1 (antibody, V domains shown, Human IgG1 format, human Ckappa) VH: QVQLVESGGGLVKPGGSLRLSCAASGFTFSDYGMSWVRQAPGKGLEWVSTISDSGSYTYYPDSVKGRFTISRDNAKNSLYLQMNSLRAEDTAVYYCARELGDYDGFDYWGQGTLVTVSS VL: DIQMTQSPSSLSASVGDRVTITCRASQEISSYLSWYQQKPGKAPKLLIYAASSLDTGVPSRFSGSGSGTDFTLTISSLQPEDFATYYCLQYDSSPYTFGGGTKVEIK
– | binds | binds | < 10 | binds | binds | binds | – | – | – | – | 15G11-DI4 IgG1 (antibody, V domains shown, Human IgG1 format, human Ckappa) VH: QVQLVESGGGLVKPGGSLRLSCAASGFTFSDYGMSWVRQAPGKGLEWVSTISDSGSYTYYPDSVKGRFTISRDNAKNSLYLQMNSLRAEDTAVYYCARELGDYDGFDYWGQGTLVTVSS VL: DIQMTQSPSSLSASVGDRVTITCRASQEISTYLSWYQQKPGKAPKLLIYAASSLDTGVPSRFSGSGSGTDFTLTISSLQPEDFATYYCLQYDSSPYTFGGGTKVEIK

Source: US20200339702A1 (ULTRAHUMAN THIRTEEN, published 2020)
